Data reported in PMC11602160, “Modulation of UPF1 catalytic activity upon interaction of SARS-CoV-2 Nucleocapsid protein with factors involved in nonsense mediated-mRNA decay”.

Legend:
[1] = biological target: Nfl (Nucleocapsid full-length) (SARS-CoV-2, UniProt P0DTC9 1-419); test: fluorescence anisotropy; 1 mM Mg2+; Fluorescence anisotropy: 20 mM HEPES pH 7.5, 100 mM NaCl, 1 mM MgCl2, 100 µg/ml BSA, 5 nM RNA, 25 °C, 1 h; one-site fit with Hill slope. SEC conditions not in the material; settings: protein: recombinant; tags: His6 or His-GST fusion, cleavable (TEV/3C); chain copies: 2; label: 5' 6-FAM; single strand
UPF1 (CH-helicase core) = biological target: T1, UPF1 (CH-helicase core) (Homo sapiens, UniProt Q92900 115-352+364-925, internal_change); test: as above; settings: protein: recombinant; tags: His6 or His-GST fusion, cleavable (TEV/3C); label: 5' 6-FAM; single strand
T1 sequence: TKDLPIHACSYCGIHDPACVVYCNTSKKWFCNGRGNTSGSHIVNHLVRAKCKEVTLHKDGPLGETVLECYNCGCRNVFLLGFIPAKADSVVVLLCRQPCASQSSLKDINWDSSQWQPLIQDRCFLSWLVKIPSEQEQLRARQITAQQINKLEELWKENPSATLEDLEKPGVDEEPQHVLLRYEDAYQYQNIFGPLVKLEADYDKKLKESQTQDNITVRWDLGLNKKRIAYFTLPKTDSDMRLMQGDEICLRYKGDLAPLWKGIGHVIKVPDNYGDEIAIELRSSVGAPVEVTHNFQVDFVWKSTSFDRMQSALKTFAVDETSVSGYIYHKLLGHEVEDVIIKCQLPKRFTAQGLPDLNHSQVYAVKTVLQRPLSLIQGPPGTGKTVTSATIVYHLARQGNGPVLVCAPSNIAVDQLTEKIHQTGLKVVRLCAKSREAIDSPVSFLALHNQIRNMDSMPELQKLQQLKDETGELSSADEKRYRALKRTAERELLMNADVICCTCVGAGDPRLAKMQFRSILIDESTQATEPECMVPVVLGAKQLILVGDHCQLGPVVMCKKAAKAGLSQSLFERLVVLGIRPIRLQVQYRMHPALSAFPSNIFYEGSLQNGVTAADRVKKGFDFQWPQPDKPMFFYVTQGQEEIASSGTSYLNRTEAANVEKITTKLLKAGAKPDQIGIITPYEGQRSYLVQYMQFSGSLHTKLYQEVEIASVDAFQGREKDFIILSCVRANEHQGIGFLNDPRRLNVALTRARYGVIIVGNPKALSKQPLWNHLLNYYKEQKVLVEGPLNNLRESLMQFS

B1: U12 (12-mer poly-U RNA) (ssRNA)
RNA: UUUUUUUUUUUU
[1]
  Kd: 82 nM
UPF1 (CH-helicase core)
  Kd: ~50 nM
